From patent publication US20250009854A1 (MACFARLANE BURNET INSTITUTE FOR MEDICAL RESEARCH AND PUBLIC …, published 2025)

Columns and labels:
[1] = target: T1, SARS-CoV-2 spike protein on Ramos-S cells (SARS-CoV-2, UniProt P0DTC2 14-1273); assay: flow cytometry on Ramos-S cells, FITC anti-hIgG-Fc
T1 construct: whole, on cells

[2] = target: T2, dimeric rsFcγRIIa (H131 allelic form) (UniProt P12318 34-217); assay: flow cytometry, biotinylated dimeric rsFcγRIIa + streptavidin-APC on Ramos-S cells opsonised with 5 µg/ml ACE2-Fc
T2 construct: also called dimeric recombinant soluble FcγRIIa
T2 sequence: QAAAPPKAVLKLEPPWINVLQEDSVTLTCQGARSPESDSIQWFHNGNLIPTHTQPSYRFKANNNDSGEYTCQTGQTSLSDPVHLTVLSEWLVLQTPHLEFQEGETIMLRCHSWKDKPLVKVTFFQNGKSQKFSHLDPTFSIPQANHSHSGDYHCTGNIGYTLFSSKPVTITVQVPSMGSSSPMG

[3] = target: T3, dimeric rsFcγRIIIa (V158 form) (UniProt P08637 17-208); assay: flow cytometry, biotinylated dimeric rsFcγRIIIa + streptavidin-APC on Ramos-S cells opsonised with 5 µg/ml ACE2-Fc
T3 construct: also called dimeric recombinant soluble FcγRIIIa
T3 sequence (P08637 17-208 F176V limits assumed): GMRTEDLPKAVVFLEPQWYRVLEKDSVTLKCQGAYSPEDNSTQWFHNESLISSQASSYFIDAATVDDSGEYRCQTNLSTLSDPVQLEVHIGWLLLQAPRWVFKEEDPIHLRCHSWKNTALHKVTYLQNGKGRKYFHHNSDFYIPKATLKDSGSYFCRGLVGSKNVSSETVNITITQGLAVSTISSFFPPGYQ

[4] = target: T2, dimeric rsFcγRIIa (H131 allelic form); assay: flow cytometry, biotinylated dimeric rsFcγRIIa + streptavidin-APC on Ramos-S cells opsonised with ACE2-Fc

B1: CC40.8-WT mAb (antibody, V domains shown)
VH: EVQLLESGGGLVQPGGSLRLSCAASGFTFSSYVMTWARQAPGKGLEWVSAISGTGYTYYADSVKGRFTVSRDNSKNTLFLQMSSLRAEDTAVYYCAITMAPVVWGQGTTVTVSS
VL: SYELTQPPSVSVSPGQTARITCSGDALPKRYAYWYQQKSGQAPILVIYEDKKRPSGIPERLSGSKSGTVATLTISGAQVEDEADYYCYSTDSSGNHAVFGGGTQLTVLG
binding result [1]: binds

B2: S2P6-WT mAb (antibody, V domains shown)
VH: EVQLVQSGAEVKKPGASVKVSCKASGYTFTSQYMHWVRQAPGQGLEWIGIINPSGVHTSYAQKFQGRVTLTRDTSTSTLYMELSSLRSEDTAVYYCARGSPKGAFDYWGQGTLVTVSS
VL: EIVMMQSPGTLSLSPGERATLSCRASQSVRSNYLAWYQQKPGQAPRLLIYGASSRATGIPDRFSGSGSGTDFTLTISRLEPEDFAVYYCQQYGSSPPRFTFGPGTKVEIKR
binding result [1]: binds

B3: EflACE2-Fc-[change] (Fc fusion)
chain: ETGSTIEEQAKYFLDKFNHEAEDLFYQSSLASWNYNTNITEENVQNMNNAGDKWSAFLKEQSTTAQMYPLQEIQNLTVKLQLQALQQNGSSVLSEDKSKRLNTILNTMSTIYSTGKVCNPDNPQECLLLEPGLNEIMANSLDYNERLWAWESWRSEVGKQLRPLYEEYVVLKNEMARANHYEDYGDYWRGDYEVNGVDGYDYSRGQLIEDVEHTFEEIKPLYEHLHAYVRAKLMNAYPSYISPIGCLPAHLLGDMWGRFWTNLYSLTVPFGQKPNIDVTDAMVDQAWDAQRIFKEAEKFFVSVGLPNMTQGFWEYSMLTDPGNVQKAVCHPTAWDLGKGDFRILMCTKVTMDDFLTAHHEMGHIQYDMAYAAQPFLLRNGANEGFHEAVGEIMSLSAATPKHLKSIGLLSPDFQEDNETEINFLLKQALTIVGTLPFTYMLEKWRWMVFKGEIPKDQWMKKWWEMKREIVGVVEPVPHDETYCDPASLFHVSNDYSFIRYYTRTLYQFQFQEALCQAAKHEGPLHKCDISNSTEAGQKLFNMLRLGKSEPWTLALENVVGAKNMNVRPLLNYFEPLFTWLKDQNKNSFVGWSTDWSPYADQSIKVRISLKSALGDRAYEWNDNEMYLFRSSVAYAMRQYFLKVKNQMILFGEEDVRVANLKPRISFNFFVTAPKNVSDIIPRTEVEKAIRMSRSRINDAFRLNDNSLEFLGIQPTLGPPNQPPVSGGGGSTHTCPPCPAPELLGGPSVFLFPPKPKDTLMISRTPEVTCVVVDVSHEDPEVKFNWYVDGVEVHNAKTKPREEQYNSTYRVVSVLTVLHQDWLNGKEYKCKVSNKALPAPIEKTISKAKGQPREPQVYTLPPSREEMTKNQVSLTCLVKGFYPSDIAVEWESNGQPENNYKTTPPVLDSDGSFFLYSKLTVDKSRWQQGNVFSCSVMFEALHNHYTQKSLSLSPGK
binding result [2]: binds | binding result [3]: binds

B4: EflACE2-Fc-[change] (Fc fusion)
chain: ETGSTIEEQAKYFLDKFNHEAEDLFYQSSLASWNYNTNITEENVQNMNNAGDKWSAFLKEQSTTAQMYPLQEIQNLTVKLQLQALQQNGSSVLSEDKSKRLNTILNTMSTIYSTGKVCNPDNPQECLLLEPGLNEIMANSLDYNERLWAWESWRSEVGKQLRPLYEEYVVLKNEMARANHYEDYGDYWRGDYEVNGVDGYDYSRGQLIEDVEHTFEEIKPLYEHLHAYVRAKLMNAYPSYISPIGCLPAHLLGDMWGRFWTNLYSLTVPFGQKPNIDVTDAMVDQAWDAQRIFKEAEKFFVSVGLPNMTQGFWEYSMLTDPGNVQKAVCHPTAWDLGKGDFRILMCTKVTMDDFLTAHHEMGHIQYDMAYAAQPFLLRNGANEGFHEAVGEIMSLSAATPKHLKSIGLLSPDFQEDNETEINFLLKQALTIVGTLPFTYMLEKWRWMVFKGEIPKDQWMKKWWEMKREIVGVVEPVPHDETYCDPASLFHVSNDYSFIRYYTRTLYQFQFQEALCQAAKHEGPLHKCDISNSTEAGQKLFNMLRLGKSEPWTLALENVVGAKNMNVRPLLNYFEPLFTWLKDQNKNSFVGWSTDWSPYADQSIKVRISLKSALGDRAYEWNDNEMYLFRSSVAYAMRQYFLKVKNQMILFGEEDVRVANLKPRISFNFFVTAPKNVSDIIPRTEVEKAIRMSRSRINDAFRLNDNSLEFLGIQPTLGPPNQPPVSGGGGSTHTCPPCPAPELLGGPSVFLFPPKPKDTLMISRTPEVTCVVVDVSHEDPEVKFNWYVDGVEVHNAKTKPREEQYNSTYRVVSVLTVLHQDWLNGKEYKCKVSNKALPAPIEKTISKAKGQPREPQVYTLPPSREEMTKNQVSLTCLVKGFYPSDIAVEWESNGQPENNYKTTPPVLDSDGSFFLYSKLTVDKSRWQQGNVFSCSVMYEALHNHYTQKSLSLSPGK
binding result [4]: no binding (tested: 5 µg/ml ACE2-Fc for opsonisation)
